Test results taken from patent publication US20160271248A1, “CXCR4 UP- AND DOWN-REGULATION FOR TREATMENT OF DISEASES OR DISORDERS” (priority 2013, published 2016).

Tested on: neuronal FHC
Test: gp120-mediated upregulation of neuronal FHC in bilaminar co-cultures with neutralizing antibodies or IL-1ra
Type: cell-based, rat
Conditions: IL-1β antibody 50 μg/mL, IL-1ra 1 μg/mL
Procedure: FIG. 13, comprising FIGS. 13A-13C, is a set of bar graphs and images illustrating that the presence of an IL-1β neutralizing antibody or IL-1 receptor antagonist abrogated gp120-mediated increases in FHC. Rat neurons cultured with a feeder layer of glia (8 DIV) were treated with either gp120IIIB (200 pM) or gp120BaL (200 pM) in the presence or absence of TNF-α antibody (40 μg/mL), IL-1β antibody (50 μg/mL) or IL-1ra (1 μg/mL). The presence of a TNF-α neutralizing antibody had no effect on the ability of gp120 to upregulate neuronal FHC. Neutralization or antagonism of IL-1β mitigated increases in neuronal FHC caused by gp120 in bilaminar cultures.
Rat cortical neurons were cultured in serum-free media in the presence of a glial feeder layer (Shimizu, et al., 2011, J. Vis. Exp. 57). This culture system largely preserves the in vivo environment, due to the presence of glia; however, it still enables direct investigation of neurons that can be separated by the glia before experiments. Selected studies were also performed in neurons grown in the absence of glia for the entire culture period, as indicated (Sengupta, et al., 2009, J. Neurosci. 29(8):2534-44). All experiments were conducted between 8-13 days in vitro (DIV).
Total protein extracts were obtained using standard protocols. […]

B1: IL-1ra: IL-1 receptor antagonist, an endogenous inhibitor of IL-1 signaling (protein, UniProt P25086 27-178, looked up)
Interleukin-1 receptor …: HPAGKRPCKMQAFRIWDTNQKTFYLRNNQLIAGYLQGPNTKLEEKIDMVPIDFRNVFLGIHGGKLCLSCVKSGDDTKLQLEEVNITDLNKNKEEDKRFTFIRSETGPTTSFESLACPGWFLCTTLEADHPVSLTNTPKEPCTVTKFYFQEDQ
gp120IIIB or gp120BaL 200 pM, TNF-α antibody 40 μg/mL
  effect on gp120-induced upregulation of neuronal FHC: completely blocked
Without gp120
  FHC protein levels, treatment alone: no significant effect on FHC protein levels
